Test results: US20200407704, “FUSION PROTEINS AND METHODS FOR SITE-DIRECTED GENOME EDITING” (The Regents of the University of California, published 2020)

T1: hADAR1d E1008Q (Homo sapiens, UniProt P55265 SEQ:833-1226)
T1 chain: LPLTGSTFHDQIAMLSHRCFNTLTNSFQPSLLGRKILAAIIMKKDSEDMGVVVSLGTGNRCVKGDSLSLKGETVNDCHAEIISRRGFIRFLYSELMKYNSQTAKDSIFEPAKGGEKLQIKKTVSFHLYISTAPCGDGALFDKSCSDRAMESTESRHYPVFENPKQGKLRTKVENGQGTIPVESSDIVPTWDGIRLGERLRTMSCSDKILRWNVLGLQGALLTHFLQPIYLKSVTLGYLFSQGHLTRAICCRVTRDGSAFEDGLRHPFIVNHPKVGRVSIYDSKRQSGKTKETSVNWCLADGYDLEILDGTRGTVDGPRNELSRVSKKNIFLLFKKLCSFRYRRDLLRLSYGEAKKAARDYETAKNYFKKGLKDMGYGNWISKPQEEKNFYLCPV

B1: M13 CAC site + guide RNA (DNA:RNA)
DNA: CTTTCTATTCTCACTCCGCTGAAA
RNA: UUUCAGCGGAGCGAGAAUAGAAAG
B2: M13 TAG site + guide RNA (DNA:RNA)
DNA: CCTCGCGTTCTTAGAATACCGGAT
RNA: AUCCGGUAUUCCAAGAACGCGAGG
B3: M13 GAA site + guide RNA (DNA:RNA)
DNA: AGGCCAGACGCGAATTATTTTTGA
RNA: UCAAAAAUAAUCCGCGUCUGGCCU
B4: M13 AAG site + guide RNA (DNA:RNA)
DNA: CCAAATGGCTCAAGTCGGTGACGG
RNA: CCGUCACCGACCUGAGCCAUUUGG

How the values were obtained:
[1] = test system: hADAR2d (ADAR2 deaminase domain, hADAR2-D WT) (Homo sapiens); settings: DNA strand of hybrid, 250 nM, 60 min
[2] = test system: HBD-ADAR2 deaminase fusion (RNase H1 hybrid binding domain) (Homo sapiens); settings: DNA strand of hybrid, 250 nM, 60 min
[3] = biological target: T1, hADAR1d E1008Q; assay: 500 nM, 2 h; settings: dA-C mismatch
Protocol: M13 genomic ssDNA (New England Biolabs) was hybridized with the corresponding guide RNAs. The guide RNA to genomic DNA molar ratio was 20:1 for each hybridization. Deamination reactions were carried out as previously described (21) with the following modifications. The final reaction volume was 10 μL. hADAR1d E1008Q was used for the reaction and the final enzyme concentration was 500 nM. The final RNA concentration was 2.8 nM. The final reaction solution contained 13 mM Tris-HCl, pH 7.2, 3.6% glycerol, 1.2 mM EDTA, 0.002% NP-40, 40.5 mM potassium glutamate, 12.5 mM KCl, 6 mM NaCl, 0.6 mM DTT, 160 units/mL RNasin, and 1 μg/mL yeast tRNA. Reactions were quenched by adding 190 μL 95° C. nuclease-free water followed by incubation at 95° C. for 5 minutes. The target regions of the reaction products were PCR amplified with primers using GoTaq® DNA Polymerase (Promega). PCR products were purified by agarose gel, extracted using a QIAquick Gel Extraction Kit (Qiagen), and sequenced with the forward PCR primers. The sequencing peak heights were measured with Chromas for calculating the editing level. Each experiment was carried out in triplicate. The editing level for the corresponding zero time point was subtracted from each data point as background subtraction. Statistical significance between groups was determined by t tests using QuickCalcs (GraphPad Software).

Row | Molecule | activity [1] | activity [2] | activity [3]
1 | DNA/RNA hybrid duplex used with HBD fusion | 35 % edited | 90 % edited | –
2 | B1 | – | – | 53 % edited
3 | B2 | – | – | 94 % edited
4 | B3 | – | – | 27 % edited
5 | B4 | – | – | 81 % edited
